Earlier results in US8021659B2, “Coenzyme Q10, lactoferrin and angiogenin compositions and uses thereof” (Naidu LP, priority 2006, dated 2011).

Tests used:
osteoblasts = settings: up to

B1: LF: 79-kDa glycoprotein present in every mucosal secretion of the human body; metal-transport protein (protein, UniProt P02788 20-710, looked up)
Lactotransferrin: GRRRSVQWCAVSQPEATKCFQWQRNMRKVRGPPVSCIKRDSPIQCIQAIAENRADAVTLDGGFIYEAGLAPYKLRPVAAEVYGTERQPRTHYYAVAVVKKGGSFQLNELQGLKSCHTGLRRTAGWNVPIGTLRPFLNWTGPPEPIEAAVARFFSASCVPGADKGQFPNLCRLCAGTGENKCAFSSQEPYFSYSGAFKCLRDGAGDVAFIRESTVFEDLSDEAERDEYELLCPDNTRKPVDKFKDCHLARVPSHAVVARSVNGKEDAIWNLLRQAQEKFGKDKSPKFQLFGSPSGQKDLLFKDSAIGFSRVPPRIDSGLYLGSGYFTAIQNLRKSEEEVAARRARVVWCAVGEQELRKCNQWSGLSEGSVTCSSASTTEDCIALVLKGEADAMSLDGGYVYTAGKCGLVPVLAENYKSQQSSDPDPNCVDRPVEGYLAVAVVRRSDTSLTWNSVKGKKSCHTAVDRTAGWNIPMGLLFNQTGSCKFDEYFSQSCAPGSDPRSNLCALCIGDEQGENKCVPNSNERYYGYTGAFRCLAENAGDVAFVKDVTVLQNTDGNNNEAWAKDLKLADFALLCLDGKRKPVTEARSCHLAMAPNHAVVSRMDKVERLKQVLLHQQAKFGRNGSDCPDKFCLFQSETKNLLFNDNTECLARLHGKTTYEKYLGPQYVAGITNLKKCSTSPLLEACEFLRK
- reduction of the rate at which osteoblasts die (osteoblasts): 50-70%
- time to peak level in plasma (absorption in the intestinal tract): ≤ 2 h
- mean fractional catabolic rate (elimination from the plasma by liver and spleen): 5.7 day⁻¹
